Laboratory results from the supplement of paper PMC9233669.
Variants at the floor of the assay were thinned out.

Tests used:
biotinyl-Phe-oxazolone = assay: self-aminoacylation, catalytic enhancement (BFO) (fold over background); higher = more active; k-Seq, kA / k0A0; sequences stand for … in GGGAAUGGAUCCACAUCUACGAAUUC…UUCACUGCAGACUUGACGAAGCUG
Outline: (§1)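 Mutagenized RNA pools with a 21-nt variable region (0.43 μM) reacted with each biotinyl-aminoacyl-oxazolone at 2–1250 μM. Reactions ran in 50 μL HEPES/NaCl/KCl/MgCl2/CaCl2 buffer with 5% acetonitrile, pH 6.9–7.0, for 90 minutes at room temperature. Streptavidin-captured RNA was quantified by triplicate qPCR and Illumina sequencing, and per-sequence fraction reacted was fit to a pseudo-first-order model with 1000 bootstraps. Catalytic enhancement is median kA divided by the uncatalyzed rate, the low-activity peak of a bimodal Gaussian fit.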

biotinyl-Ile-oxazolone = assay: self-aminoacylation, catalytic enhancement (BIO) (fold over background); higher = more active; k-Seq, kA / k0A0; sequences stand for … in GGGAAUGGAUCCACAUCUACGAAUUC…UUCACUGCAGACUUGACGAAGCUG
Outline: as §1

biotinyl-Met-oxazolone = assay: self-aminoacylation, catalytic enhancement (BMO) (fold over background); higher = more active; k-Seq, kA / k0A0; sequences stand for … in GGGAAUGGAUCCACAUCUACGAAUUC…UUCACUGCAGACUUGACGAAGCUG
Outline: as §1

biotinyl-Val-oxazolone = assay: self-aminoacylation, catalytic enhancement (BVO) (fold over background); higher = more active; k-Seq, kA / k0A0; sequences stand for … in GGGAAUGGAUCCACAUCUACGAAUUC…UUCACUGCAGACUUGACGAAGCUG
Outline: as §1

biotinyl-Leu-oxazolone = assay: self-aminoacylation, catalytic enhancement (BLO) (fold over background); higher = more active; k-Seq, kA / k0A0; sequences stand for … in GGGAAUGGAUCCACAUCUACGAAUUC…UUCACUGCAGACUUGACGAAGCUG
Outline: as §1

biotinyl-Trp-oxazolone = assay: self-aminoacylation, catalytic enhancement (BWO) (fold over background); higher = more active; k-Seq, kA / k0A0; sequences stand for … in GGGAAUGGAUCCACAUCUACGAAUUC…UUCACUGCAGACUUGACGAAGCUG
Outline: as §1

In the case of “CCACACUUCACGGAAUCGGUC [Fam1B.1 aminoacylation ribozyme variant]”, the self-aminoacylation (biotinyl-Phe-oxazolone) is reported as 1.01, the self-aminoacylation (biotinyl-Ile-oxazolone) is reported as 1.16 and the self-aminoacylation (biotinyl-Met-oxazolone) is reported as 1.14. It also gave a self-aminoacylation (biotinyl-Val-oxazolone) of 1.39, a self-aminoacylation (biotinyl-Leu-oxazolone) of 1.65 and a self-aminoacylation (biotinyl-Trp-oxazolone) of 0.915.

Work on “CCACACUUCAGGCAACCGGUC [Fam1B.1 aminoacylation ribozyme variant]” yielded a self-aminoacylation (biotinyl-Phe-oxazolone) of 1.64, a self-aminoacylation (biotinyl-Ile-oxazolone) of 1.89 and a self-aminoacylation (biotinyl-Met-oxazolone) of 1.61. It also gave a self-aminoacylation (biotinyl-Val-oxazolone) of 1.95, a self-aminoacylation (biotinyl-Leu-oxazolone) of 1.38 and a self-aminoacylation (biotinyl-Trp-oxazolone) of 1.27.

“CCACACUUCAGGCAAUCGGUU [Fam1B.1 aminoacylation ribozyme variant]” was tested, and the self-aminoacylation (biotinyl-Phe-oxazolone) was 6.44, the self-aminoacylation (biotinyl-Ile-oxazolone) was 1.68 and the self-aminoacylation (biotinyl-Met-oxazolone) was 2.24. It also gave a self-aminoacylation (biotinyl-Val-oxazolone) of 1.98, a self-aminoacylation (biotinyl-Leu-oxazolone) of 2.13 and a self-aminoacylation (biotinyl-Trp-oxazolone) of 2.37.

In the case of “CCACACUUCAUCCAAUCGGUC [Fam1B.1 aminoacylation ribozyme variant]”, the self-aminoacylation (biotinyl-Phe-oxazolone) is reported as 0.689, the self-aminoacylation (biotinyl-Ile-oxazolone) is reported as 0.883 and the self-aminoacylation (biotinyl-Met-oxazolone) is reported as 0.811. For the same sequence, the self-aminoacylation (biotinyl-Val-oxazolone) was 0.912, the self-aminoacylation (biotinyl-Leu-oxazolone) was 0.854 and the self-aminoacylation (biotinyl-Trp-oxazolone) was 0.581.

Sequence “CCACACUUCAUGCAACCGGUC [Fam1B.1 aminoacylation ribozyme variant]” has a self-aminoacylation (biotinyl-Phe-oxazolone) of 0.916, a self-aminoacylation (biotinyl-Ile-oxazolone) of 0.996 and a self-aminoacylation (biotinyl-Met-oxazolone) of 0.943. It also gave a self-aminoacylation (biotinyl-Val-oxazolone) of 0.981, a self-aminoacylation (biotinyl-Leu-oxazolone) of 0.795 and a self-aminoacylation (biotinyl-Trp-oxazolone) of 0.752.

With “CCACACUUCAUGCAAUCGGUA [Fam1B.1 aminoacylation ribozyme variant]” the self-aminoacylation (biotinyl-Phe-oxazolone) was 0.533, the self-aminoacylation (biotinyl-Ile-oxazolone) was 0.681 and the self-aminoacylation (biotinyl-Met-oxazolone) was 0.769. The self-aminoacylation (biotinyl-Val-oxazolone) was 0.733, the self-aminoacylation (biotinyl-Leu-oxazolone) was 0.811 and the self-aminoacylation (biotinyl-Trp-oxazolone) was 0.458.

For “CCACACUUCAUGCAAUCGGUU [Fam1B.1 aminoacylation ribozyme variant]”, the self-aminoacylation (biotinyl-Phe-oxazolone) was 0.766, the self-aminoacylation (biotinyl-Ile-oxazolone) was 1.2 and the self-aminoacylation (biotinyl-Met-oxazolone) was 1.33. It also gave a self-aminoacylation (biotinyl-Val-oxazolone) of 1.26, a self-aminoacylation (biotinyl-Leu-oxazolone) of 1.37 and a self-aminoacylation (biotinyl-Trp-oxazolone) of 0.843.

In the case of “CCACACUUCAUGGAAUCGGUC [Fam1B.1 aminoacylation ribozyme variant]”, the self-aminoacylation (biotinyl-Phe-oxazolone) is reported as 0.928, the self-aminoacylation (biotinyl-Ile-oxazolone) is reported as 0.858 and the self-aminoacylation (biotinyl-Met-oxazolone) is reported as 0.836. It also gave a self-aminoacylation (biotinyl-Val-oxazolone) of 1.1, a self-aminoacylation (biotinyl-Leu-oxazolone) of 0.946 and a self-aminoacylation (biotinyl-Trp-oxazolone) of 0.598.

“CCACACUUCCAGCAAUCGGAC [Fam1B.1 aminoacylation ribozyme variant]” gave a self-aminoacylation (biotinyl-Phe-oxazolone) of 0.784, a self-aminoacylation (biotinyl-Ile-oxazolone) of 0.999 and a self-aminoacylation (biotinyl-Met-oxazolone) of 0.797. For the same sequence, the self-aminoacylation (biotinyl-Val-oxazolone) was 1.1, the self-aminoacylation (biotinyl-Leu-oxazolone) was 0.592 and the self-aminoacylation (biotinyl-Trp-oxazolone) was 0.846.

“CCACACUUCCAGCAAUCGGUC [Fam1B.1 aminoacylation ribozyme variant]” showed a self-aminoacylation (biotinyl-Phe-oxazolone) of 1.03, a self-aminoacylation (biotinyl-Ile-oxazolone) of 1.14 and a self-aminoacylation (biotinyl-Met-oxazolone) of 0.882. It also gave a self-aminoacylation (biotinyl-Val-oxazolone) of 1.25, a self-aminoacylation (biotinyl-Leu-oxazolone) of 0.9 and a self-aminoacylation (biotinyl-Trp-oxazolone) of 0.872.

“CCACACUUCCAGCAAUCGGUG [Fam1B.1 aminoacylation ribozyme variant]” gave a self-aminoacylation (biotinyl-Phe-oxazolone) of 18.9, a self-aminoacylation (biotinyl-Ile-oxazolone) of 2.74 and a self-aminoacylation (biotinyl-Met-oxazolone) of 3.83. For the same sequence, the self-aminoacylation (biotinyl-Val-oxazolone) was 3.05, the self-aminoacylation (biotinyl-Leu-oxazolone) was 4.82 and the self-aminoacylation (biotinyl-Trp-oxazolone) was 3.13.

“CCACACUUCCAGCAAUCGUUC [Fam1B.1 aminoacylation ribozyme variant]” showed a self-aminoacylation (biotinyl-Phe-oxazolone) of 1.22, a self-aminoacylation (biotinyl-Ile-oxazolone) of 1.09 and a self-aminoacylation (biotinyl-Met-oxazolone) of 0.642. The self-aminoacylation (biotinyl-Val-oxazolone) was 1.05, the self-aminoacylation (biotinyl-Leu-oxazolone) was 0.64 and the self-aminoacylation (biotinyl-Trp-oxazolone) was 0.75.

“CCACACUUCCAGCAGUCGGUC [Fam1B.1 aminoacylation ribozyme variant]” was tested, and the self-aminoacylation (biotinyl-Phe-oxazolone) was 0.659, the self-aminoacylation (biotinyl-Ile-oxazolone) was 1.24 and the self-aminoacylation (biotinyl-Met-oxazolone) was 1.14. The self-aminoacylation (biotinyl-Val-oxazolone) was 1.29, the self-aminoacylation (biotinyl-Leu-oxazolone) was 1.11 and the self-aminoacylation (biotinyl-Trp-oxazolone) was 0.613.
